Laboratory results as given in paper PMC4598299.

Target: hThumb WT (hTERT thumb/CTE domain) (human, UniProt O14746 943-1132)
Assay: fluorescence polarization

Chain of hThumb WT (hTERT thumb/CTE domain) (O14746 943-1132): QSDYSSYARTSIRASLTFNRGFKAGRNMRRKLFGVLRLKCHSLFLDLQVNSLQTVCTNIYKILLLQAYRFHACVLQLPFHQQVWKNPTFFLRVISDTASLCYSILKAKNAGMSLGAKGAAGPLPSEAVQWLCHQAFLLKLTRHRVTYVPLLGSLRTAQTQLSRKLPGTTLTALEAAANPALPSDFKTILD

B1: hTER CR4/5 (structured_RNA)
RNA: CCCGCCUGGAGGCCGCGGUCCGCCGCGAAGAGUUGGGCUCUGUCAGCCGCGGG
Kd: ~400 nM
